Reference: paper PMC12063177

How the values were obtained:
[1] = biological target: YaxAΔ40B_(strepII-70aa) nanopore; assay: single-channel nanopore electrical recording; apparent constants; SA titrated 1-25 nM in cis in 25% (v/v) mixed-protein solution (602 uM BSA, 35 uM HTf, 100 nM BT, 100 nM CRP before dilution); 80 nM biotin in trans; PDB11PEO8:DPhPC (1:1) hybrid bilayer; -75 mV sweeps protocol; 150 mM NaCl, 15 mM TrisHCl pH 7.5
[2] = biological target: YaxAΔ40B_(weak-50aa) nanopore; assay: single-channel nanopore electrical recording; single pore in a DPhPC planar bilayer; SA 20 nM or BT 50 nM added to cis; -75 mV; 150 mM NaCl, 15 mM TrisHCl pH 7.5
[3] = biological target: streptavidin (Streptomyces avidinii) (UniProt P22629); conditions: cited from earlier work
Sequence of streptavidin (Streptomyces avidinii) (P22629 25-183): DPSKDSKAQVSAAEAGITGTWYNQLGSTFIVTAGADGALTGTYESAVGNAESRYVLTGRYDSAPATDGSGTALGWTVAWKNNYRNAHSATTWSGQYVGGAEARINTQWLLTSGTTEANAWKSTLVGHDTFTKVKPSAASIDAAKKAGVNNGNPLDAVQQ

Sequence of Streptavidin (P22629 25-183): as above

Substance: Streptavidin (from UniProt P22629 25-183) (natural protein)
- Kd [1]: 0.023 µM
- koff [1]: 0.2 s⁻¹
- kon [1]: 8.77e+06 M⁻¹ s⁻¹
- dwell time [2]: 5580 ms

Substance: strepII-peptide
- Kd [3]: 70 µM
